Results taken from the supplement of paper PMC10126150.
± gives the standard deviation of the averaged measurements.

system: ATP; test: switch fluorescence ratio, 500 uM ATP over buffer (Cy3 cluster intensity, sum of 5 cycles each) (fold (ratio)); higher = stronger signal-on switching upon ATP binding; sequences stand for … in TCGTCGGCAGCGTCAGATGTGTATAAGAGACAGTTTTTTTTTTTTTTTTTTTTTTTTT…TC; conditions: aptamer strand: ATP DNA aptamer (quencher-CACCTGGGGGAGTATTGCGGAGGAAGG + anchor), 100 nM annealed; ATP concentration: 500 uM
In short: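 Cy3-labelled switching-strand clusters on a modified Illumina MiSeq flow-cell were annealed to 100 nM quencher-labelled ATP aptamer and imaged first in selection buffer, then after 15 min with 500 uM ATP at 22 °C. NaOH stripping and re-annealing separated each of five buffer/ATP cycles, and clusters outside 100-1000 RFU were excluded. The fluorescence ratio sums target-cycle Cy3 intensity over buffer-cycle Cy3 intensity per cluster and averages it per switch-domain sequence.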
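Note: ATP exposure 15 min at 22 °C before imaging.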

Row | Sequence | switch fluorescence ratio
1 | TTGAACGGGG | 0.9933 ± 0.0035
2 | GATATCGTCT | 1.03 ± 0.028
3 | GGGTTTATGT | 0.984 ± 0.029
4 | GGGGTTAACG | 0.996 ± 0.031
5 | ATTTGGGGAA | 0.976 ± 0.021
6 | ATAAGGCCTA | 0.991 ± 0.038
7 | TTCATGCATC | 1.83 ± 1.2
8 | ACTGCGGGTC | 1.031 ± 0.0063
9 | ATCCCTTCCA | 1.24 ± 0.087
10 | AATGAGTTTG | 0.991 ± 0.019
11 | TACGGGTAT | 0.9977 ± 0.0024
12 | GTGGGGCGCC | 1.01 ± 0.03
13 | CGCGTGGATC | 1.06 ± 0.047
14 | CGTTTGGCGG | 0.987 ± 0.064
15 | TCATGTTCGT | 1.08 ± 0.15
16 | CAAAAGTGGG | 0.9928 ± 0.0018
17 | GTGTGCAGGG | 0.945 ± 0.031
18 | TTTACTGTTT | 1.01 ± 0.082
19 | TGGATTTTTT | 0.996 ± 0.036
20 | GGATGCAGGG | 0.999 ± 0.012
21 | GAAGTTGGCA | 0.9964 ± 0.0029
22 | ATGGGTTATT | 0.98 ± 0.045
23 | GACTTGGTGT | 1.047 ± 0.0092
24 | GGTTCATGTG | 1.01 ± 0.015
25 | GGTACTCATT | 0.994 ± 0.034

Row | Sequence | switch fluorescence ratio
26 | TTTGGGTGGT | 1.09 ± 0.21
27 | GGATTAGCTG | 1.01 ± 0.049
28 | AGACCGTTCG | 1.02 ± 0.0066
29 | TGGGGCGGGG | 0.983 ± 0.018
30 | TTATGTGGTA | 1 ± 0.02
31 | GGGCAGACCA | 1.01 ± 0.011
32 | ACTGGGGCCA | 0.972 ± 0.047
33 | TGCTGAGACA | 1.01 ± 0.012
34 | GGGTAATAAG | 0.993 ± 0.035
35 | GGTTTTAAAA | 0.99 ± 0.013
36 | GGTTGTAAGG | 1.01 ± 0.033
37 | GTCTAATATG | 0.9716 ± 0.0048
38 | CCCGGCGAT | 1.85 ± 1.2
39 | AAGCCCTACA | 1.01 ± 0.03
40 | CGTTGGTGCG | 0.98 ± 0.059
41 | AGTTGTTTCG | 1.016 ± 0.0023
42 | CCCACTACAT | 1.06 ± 0.035
43 | ATATAGTTTT | 0.953 ± 0.011
44 | AAGTGCACGG | 1 ± 0.036
45 | TCTTTTCCCT | 1.02 ± 0.086
46 | AATCATGGTT | 1 ± 0.028
47 | GAGGGAGCGT | 1.002 ± 0.0083
48 | ATTGTGGTTT | 1.01 ± 0.034
49 | CCTTTTCGCG | 1.106 ± 0.0051
50 | CGGATGTGCA | 0.981 ± 0.018

Row | Sequence | switch fluorescence ratio
51 | AAAAATCCTG | 0.98 ± 0.021
52 | TCTAAAATG | 0.972 ± 0.029
53 | ACAAGGGCGG | 1.01 ± 0.015
54 | ATGCACACTC | 1.225 ± 0.0043
55 | TCTATGAAAA | 0.9818 ± 0.004
56 | GGTAAACAAA | 1.026 ± 0.0079
57 | CTGGGAATGG | 1.12 ± 0.11
58 | ACATGGTTAT | 0.994 ± 0.018
59 | TTCTTAATTT | 1 ± 0.025
60 | TAATTTTTAG | 1.01 ± 0.025
61 | ATTATGGTAA | 1 ± 0.018
62 | AAGGGGTTAA | 1.03 ± 0.022
63 | ACGGGGTGCG | 0.986 ± 0.032
64 | TCGGTGGGGT | 0.982 ± 0.0061
65 | AGGGAGGGAG | 0.97 ± 0.035
66 | AAACCGTT | 1.04 ± 0.024
67 | TTCCCCATGG | 1.43 ± 0.6
68 | CATTGACATA | 1.07 ± 0.034
69 | TTGGAGGGGT | 1.09 ± 0.15
70 | TGCACCCGTA | 1.054 ± 0.0013
71 | TGATATTT | 0.991 ± 0.022
72 | CAGGGGGTTG | 0.9866 ± 0.0018
73 | GAACATGTAT | 0.987 ± 0.026
74 | CTCTAATCGG | 1.018 ± 0.0097
75 | AGTTTGGGTT | 1.01 ± 0.073

Row | Sequence | switch fluorescence ratio
76 | GGGGATAACG | 0.981 ± 0.012
77 | AATTGGGGCG | 0.969 ± 0.025
78 | CCAAAATTG | 1.02 ± 0.018
79 | CGTAGTAAAT | 1.062 ± 0.0087
80 | AAGGAAAATT | 0.973 ± 0.02
81 | GTTATTGCTT | 0.98 ± 0.068
82 | GTGGGCGATT | 1.01 ± 0.024
83 | TAGCAGGTGG | 1.15 ± 0.14
84 | TGGGTTGCGT | 1.01 ± 0.017
85 | TTGCTCTTTT | 1.019 ± 0.0013
86 | AAATCCGATT | 1.01 ± 0.011
87 | ATCGTAAGGA | 1.02 ± 0.046
88 | CGGGGGCCAG | 0.994 ± 0.038
89 | ACCGTGCCTG | 1.03 ± 0.072
90 | TGGAGGGGTA | 1.05 ± 0.053
91 | CCCGTTGGTT | 1.27 ± 0.34
92 | GTTAGGGTTT | 0.996 ± 0.024
93 | ACGTTGAGGG | 1.06 ± 0.049
94 | TATTAAACGA | 1.019 ± 0.0063
95 | GTTGGGAGGT | 0.982 ± 0.015
96 | GAGGCTTGTT | 0.981 ± 0.01
97 | TAGTGCCAGA | 1.01 ± 0.012
98 | GGGAAATGCG | 0.9983 ± 0.0053
99 | CCGCGGGGAG | 1.1 ± 0.041
100 | TCGGGGGATT | 0.966 ± 0.028

Row | Sequence | switch fluorescence ratio
101 | TAGGGTTCAG | 0.993 ± 0.029
102 | TTGTTGCGGC | 1.01 ± 0.042
103 | TGTGAATAGG | 1.02 ± 0.065
104 | CTGTAGTCGG | 1.02 ± 0.03
105 | CGCTGCTGGT | 0.998 ± 0.031
106 | CTACGGCATA | 3.11 ± 0.11
107 | GTGTATTGGG | 0.993 ± 0.025
108 | TGGGCGCAGT | 0.986 ± 0.012
109 | GGGGGCAGAT | 0.97 ± 0.018
110 | AGAGTTGGGT | 0.984 ± 0.02
111 | GGGAACGGGT | 1 ± 0.035
112 | ACGGTGGTCA | 1.023 ± 0.0092
113 | TTTATTAACT | 1.06 ± 0.072
114 | AAAAAAGGGG | 1.87 ± 1.5
115 | TATACGTTTC | 1.04 ± 0.028
116 | TTGTGTGACT | 0.991 ± 0.04
117 | CGAGGCAGGT | 1.51 ± 0.093
118 | TTAATGTGGA | 0.993 ± 0.046
119 | CAGAACAAAA | 1.03 ± 0.035
120 | CACTTGGTGG | 0.96 ± 0.038
121 | AGTTAGGAGG | 0.947 ± 0.053
122 | CGGTAGAGTA | 0.98 ± 0.062
123 | TAACAGTAAC | 1.08 ± 0.05
124 | TTCAATAGGG | 1.02 ± 0.036
125 | ATATGACGCT | 1.04 ± 0.09

Row | Sequence | switch fluorescence ratio
126 | CGGCTAGTGG | 0.961 ± 0.032
127 | GATTTTTTCG | 0.997 ± 0.01
128 | CGCAAAGGGC | 2.12 ± 1.4
129 | TAGGGGGAGA | 1.06 ± 0.043
130 | TAAGGTGCTC | 1.1 ± 0.01
131 | TATTGGAACG | 0.99979 ± 0.0003
132 | CGATGGGGGT | 1 ± 0.026
133 | TATTTATAAG | 0.96 ± 0.015
134 | CGAGAGGAGC | 0.998 ± 0.073
135 | TGTTACATGT | 1.04 ± 0.041
136 | GCGTTGGGGA | 1.02 ± 0.015
137 | TTTCGACTGG | 0.996 ± 0.02
138 | TCGACGGGCG | 1.03 ± 0.02
139 | CTAGGGTAAT | 0.9675 ± 0.0036
140 | TCCTGGTTTT | 0.996 ± 0.046
141 | AGAGTGATCT | 0.98437 ± 0.00057
142 | TTACCTACTT | 1.17 ± 0.12
143 | AGAGGGCTGT | 1.01 ± 0.15
144 | TGCTAATTGA | 1.01 ± 0.037
145 | GGATAGGGTG | 1.06 ± 0.076
146 | CCGAAGGGGT | 1.18 ± 0.16
147 | GGGGTGAAGT | 1.04 ± 0.017
148 | ACAGGTTTGC | 1.007 ± 0.0039
149 | GGGGTATAGT | 0.98 ± 0.021
150 | TGTGGTTATT | 0.991 ± 0.025

Row | Sequence | switch fluorescence ratio
151 | GCTTGAGGAG | 1 ± 0.009
152 | GTTTGTCCTG | 1.007 ± 0.0071
153 | AACTCCAGGT | 1.2 ± 0.011
154 | ATGATGTGAG | 1.01 ± 0.051
155 | GAATAAAGGT | 0.979 ± 0.02
156 | CCCATGCCCG | 1.04 ± 0.021
157 | TGTAAGGGGG | 0.989 ± 0.039
158 | TTGTATATAT | 1.49 ± 0.81
159 | GTTGAATATG | 1.01 ± 0.029
160 | AGAAAAACGG | 1.12 ± 0.25
161 | TGGATTAGTT | 0.96734 ± 0.00041
162 | GGATTGGATT | 1 ± 0.022
163 | CGGGGGCGCC | 1.02 ± 0.031
164 | CGTCGGGGG | 0.982 ± 0.044
165 | GGCGGAGAGA | 1.03 ± 0.07
166 | GCTTTTGGCA | 1.019 ± 0.0057
167 | GGTGGGGGCC | 1.03 ± 0.011
168 | TTTTTGAGTG | 0.976 ± 0.02
169 | GGGGGGTAAT | 1.01 ± 0.026
170 | TAAGTTGAGC | 0.965 ± 0.057
171 | GCTAGTTGGT | 0.99 ± 0.017
172 | GGCTAAGGGT | 0.995 ± 0.013
173 | AGGGTATTGG | 0.993 ± 0.028
174 | GGGACGTCGT | 1.04 ± 0.042
175 | TGGGACATGT | 1.02 ± 0.019

Row | Sequence | switch fluorescence ratio
176 | TATACGGGGG | 0.992 ± 0.049
177 | ATCTCCGGTT | 1.1 ± 0.17
178 | AATAATGTCG | 1.02 ± 0.06
179 | AGTAGCAGCG | 0.963 ± 0.04
180 | GGTCCGGCGG | 0.984 ± 0.057
181 | GGTGGCATTT | 1.08 ± 0.011
182 | ATAGTTATCT | 1.03 ± 0.026
183 | GGTGCGACTC | 1.04 ± 0.05
184 | GAACTATGTA | 1.038 ± 0.01
185 | GGGATTTGCA | 0.9758 ± 0.0075
186 | TCTTAATTG | 0.98356 ± 0.00079
187 | CGAAGTACCG | 1.08 ± 0.011
188 | TTTTGAGTAC | 1.01 ± 0.042
189 | GGGCTTGCAG | 0.9812 ± 0.0089
190 | AGGGGGCGTG | 1.03 ± 0.031
191 | CTTGAAGGTG | 1.595 ± 0.015
192 | TAAGGTGTTT | 1.08 ± 0.076
193 | CTCAGGGTTT | 1.04 ± 0.023
194 | CTGGTCGGGG | 1.017 ± 0.0096
195 | TTAAACGGGG | 1.01 ± 0.035
196 | TTAATAGTGA | 0.973 ± 0.021
197 | TTGTGATCTT | 0.961 ± 0.02
198 | GATCGAGGTC | 1.0474 ± 0.001
199 | TAAGCTCTCG | 0.9915 ± 0.0027
200 | TATTGTGAGT | 0.996 ± 0.057
